This note sets out measurements from article doi:10.1101/2020.01.02.893016 (bioRxiv, 2020).

The experiment addresses T1, ROOTY (RTY) protein, wild type, C-S lyase (Arabidopsis thaliana, UniProt Q9SIV0 1-462).
T1 sequence (looked up): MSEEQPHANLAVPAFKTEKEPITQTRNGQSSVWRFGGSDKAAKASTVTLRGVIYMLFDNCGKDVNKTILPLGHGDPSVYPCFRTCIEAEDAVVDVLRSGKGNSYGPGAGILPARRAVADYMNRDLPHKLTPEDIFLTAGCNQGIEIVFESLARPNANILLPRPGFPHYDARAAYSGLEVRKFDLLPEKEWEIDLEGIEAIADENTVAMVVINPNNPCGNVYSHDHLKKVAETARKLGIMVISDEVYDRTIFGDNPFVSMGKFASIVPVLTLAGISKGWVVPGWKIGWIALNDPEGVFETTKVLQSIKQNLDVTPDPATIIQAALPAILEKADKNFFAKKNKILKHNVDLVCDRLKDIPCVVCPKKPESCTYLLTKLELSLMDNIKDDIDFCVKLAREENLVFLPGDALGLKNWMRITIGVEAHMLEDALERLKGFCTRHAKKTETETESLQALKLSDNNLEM
As to the kind of experiment: two-hybrid.

Residue numbers refer to the chain shown, from its start. Names and notes keep the numbering of the source.

B1: ROOTY (RTY) protein, D315N mutant (TG8B allele) (enzyme, Arabidopsis thaliana, UniProt Q9SIV0 1-462, looked up)
chain: T1 sequence (looked up) with D315N
As to B1, the “beta-galactosidase activity relative to WT-WT” value was approximately 80%.
